Experimental findings from paper doi:10.1101/2022.06.24.497451 are described below.

The experiment has as its target SMC3CC/RAD21N complex (human).

In turn, SMC1ACC-Δ58-62/RAD21C complex gave a loss of ATPase activity compared to the WT complex when SMC3CC/RAD21N was added of 10%.
The figure for SMC1ACC-R57A/RAD21C complex is 10%.
